From paper PMC6910952 (Nature Communications, 2019)
No end group written: not given here.

Target: T1, His6-yNpl4^113–580 Y424A (Saccharomyces cerevisiae, UniProt P33755 113-580, Y424A)
T1 construct: also called yNpl4 Y424A; source: E. coli Rosetta (DE3), purified (Ni-NTA, Resource Q); not shown: His6, N-terminal, kept
T1 sequence (looked up): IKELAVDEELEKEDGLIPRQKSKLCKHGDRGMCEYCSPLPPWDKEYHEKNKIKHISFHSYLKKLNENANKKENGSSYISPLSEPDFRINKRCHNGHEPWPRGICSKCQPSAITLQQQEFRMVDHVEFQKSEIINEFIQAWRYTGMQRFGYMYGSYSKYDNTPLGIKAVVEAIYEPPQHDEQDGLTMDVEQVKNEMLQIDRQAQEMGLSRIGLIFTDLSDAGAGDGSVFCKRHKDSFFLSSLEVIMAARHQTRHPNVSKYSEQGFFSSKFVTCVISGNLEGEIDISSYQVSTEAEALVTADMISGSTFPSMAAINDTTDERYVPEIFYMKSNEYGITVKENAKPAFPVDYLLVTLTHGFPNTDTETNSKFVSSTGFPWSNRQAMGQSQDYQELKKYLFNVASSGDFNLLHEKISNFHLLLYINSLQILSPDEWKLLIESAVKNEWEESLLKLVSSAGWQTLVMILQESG
Assay: fluorescence polarisation; fluorescence anisotropy; 1 nM FlAsH-labeled His6-SUMO-yUfd1 peptide, His6-yNpl4^113–580 in two-fold dilution series; 25 °C; 50 mM Tris-HCl pH 8.0, 100 mM NaCl, 5 mM β-mercaptoethanol, 0.1 g/L BSA
Settings: both partners purified

Kd: 8.45 µM
B1: FlAsH-labeled His6-SUMO-yUfd1^288–305-GWCCPGCC (peptide, UniProt P53044 288-305, looked up)
chain: {His6-SUMO}-EPAKLDLPEGQLFFGFPMGWCCPGCC
modifications: cysteine pairing not given here; also: FlAsH label bound to CCPGCC motif
notes: the assay methods print 280-305; also called yUfd1-FlAsH; yUfd1 WT; source: E. coli Rosetta (DE3) (pCold-SUMO), purified (Ni-NTA, Resource Q), labeled with FlAsH-EDT2; not shown: His6, N-terminal, kept; SUMO, N-terminal, kept
